This is an account of results in the DeepSol protein solubility set.

A short description of this data set: soluble on expression in E. coli; label from the status in PepcDB or PDB records.
“MDRRFPPFSPFFNHGRRFFDDVDFDRHMIRPYWADQTMLTGHRVGDAIDVVNNDQEYNVSVDVSQFEPEELKVNIVDNQLIIEGKHNEKTDKYGQVERHFVRKYNLPTGVRPEQIKSELSNNGVLTVKYEKNQEQQPKSIPITIVPKRN”: the “soluble on expression in E. coli” value is “not soluble”.

For the sequence “MGSDKIHHHHHHMGMNQISQDQIGQARILVVGDMMLDRYWFGDVERISPEAPVPVVQIKRSDERLGGAANVARNSAALGAQVGMLGVVGDDEPGRTIESLLSACKVQPYLHRDASVNTTIKLRVLAHQQQLLRVDFENPPTHEVLLSVLEGFQELVKQYEVLVLSDYGKGGLTHVGRMVEAGRAAGRMVLVDPKGDDYSRYRGATLITPNRAEIRRVVGAWKSEQDLTARAQNLRRDLQLEALLLTRSEEGMTLYTEAEVLHVSAQAREVYDVSGAGDTVIATLATMLAAGVSLKQAVQFANRAGGIVVGKLGTAVVSYPELFGAAG”, the “soluble on expression in E. coli” value was “not soluble”.

In the case of “MSLNGGVTELSVWSGFTENDGKVVQSIADDFNKSQSNVKVTIEQNPWNVINDKLLSSISAGNGPDVVTYQPDGAKGFIKQGAIVSTDDFYSDSSNETSHYRKNVVKDGEVDGKHYGVPMGHAPYSVYFNKAIFDAAGITEDQYPKTWDDLAALASKLTVDKDGDGTPDQYGIALADKDAGYLPIFLQGAGTDLVVDGKANLTSKKSKDTLTWIRDNFYAKKSSPSNLSLVDAQTLFCSGKAAMFWIGPWIVNAAKEKGIETGTFEMPKGPEKQVTEVAANYWYTTSQVDGNDAKKKAAYAWMKFFNNKKNQITWAVKANYPPNRTDVTADDMKSNNFVSQISPYMDHSSLLLGSVPSGFADVQSELNALGPKISESTGDLTDILQKSNDKIQGYIEEGHHHHHH”, the “soluble on expression in E. coli” value is given as “soluble”.

With “NNTPVTNKLKAYGDANFNFTNNSIADAEKQVQEAYKGLLNLNEKNASDKLLVEDNTAATVGNLRKLGWVLSSKNGTRNEKSQQVKHADEVLFEGKGGVQVTSTSENGKHTITFALA”, the “soluble on expression in E. coli” value is reported as “soluble”.

Turning to “MGSDKIHHHHHHMSHLPHLIAKLENHAEWVKRLVLVGQKSWHTPLQKGGWSPAEVIHHFHRWDDFARNYRFIPFLAGRATFTAGAHAKFNEHSEREVRDGLGKEAIIVQCLKSRYALIETVEKLREEAWEQTLTIGDHDLSIHTYLQGVIEHDRHHREQIEQFFSLEQQGKLPMVNITERCGEELPMNLLLLADPEQAMIERYLSGGLGFLAEVEGTPVGVIVLKDKGHGLFEVMNIAVAEQEQGKGYGKLLLLHGIHVALKRGADRIEIGTGNSSIGQLALYQRCGFSITAVDKDFFTKHYHEPIVEQGIRCEHMIRLAQDLK”, the “soluble on expression in E. coli” value is reported as “not soluble”.

As to “MGSDKIHHHHHHMGFVSTTFDVLIIGAGPSGASAAVHAARTGLQTLLIDASSFPRDKTCGDGLTPRAIHQLELLGVADQVTGDYFNKGLKLHGFGGSVEAPWPETYFTNKGSAMSRMEFDDLLFRLAKSHEEVTTWENASAQDPILRGNFLEGVVINHAGQEKTVKAKHVIIADGVRSPFGKKLGRQWQRDEVYGIAARAYCETPLSDEPWIHSHVELRDEDGVVQPGYGWIFPLGNGTVNLGCGALSTDTRPAKINTKKLLSFYAGQRRKAWQLGPEHDVASALLPMGGAVSNVAGANWMLIGDSAACVNPLNGEGIDYGLETAAMAVDTLVENPKRDLTLVWPHRLRDAYGETFMLARTAARLLTYPQFLPMAGPLAFRGPLQKAIMPAAARLMGNLITEEDKDLLARGWQAAGSAISWARKGSPLWDSTSSLV”, the “soluble on expression in E. coli” value was “not soluble”.

Turning to “MFSGHQLKTARLSKGITQSELGRLLHVNKMTISNWEKGKNIPNEKHLNALLHLFNVTSDYFDPNYRLLTPYNQLTISNKEKVIGYSERLLNHQIDKKSKDLIDKPSQLYAYRVYESLSAGTGYSYFGDGNFDVVFYDEQLEYDFASWVFGDSMEPTYLNGEVVLIKQNSFDYDGAIYAVEWDGQTYIKKVFREDEGLRLVSLNKKYSDKFAPYSEEPRIIGKIIANFRPLEI”, the “soluble on expression in E. coli” value is “not soluble”.

Take “SSDSFDRAPEQTKPQRAPPSSQDKIPQQNSESAMAKPQVVVAPVLMSKLSANAPEFYPSGYSSNYTESYEDGCEDYPTLSEYVQDFLNHLTEQPGSFETEIEQFAETLNGWVTTDDALQELVELIYQQATSIPNFSYMGARLCNYLSHHLTISPQSGNFRQLLLQRCRTEYEAKDQAAKGDEVTRKRFHAFVLFLGELYLNLEIKGTNGQVTRADILQVGLRELLNALFSNPMDDNLICAVKLLKLTGSVLEDTWKEKGKTDMEEIIQRIENVVLDANCSRDVKQMLLKLVELRSSNWGRVHATSTYREATPENDPNYFMNEPTFYTSDGVPFTAADPDYQEKYQELLEREDFFPDYEENGTDLSGAGDPYLDDIDDEMDPEIEEAYEKFCLESERKRKQ”: the “soluble on expression in E. coli” value is “not soluble”.

Turning to “MHKVQRSVLVPYSAAQMFDLVADVEKYPEFMPWCGGAEVHSRSEHGMQASILISFAGLKQRFSTRNTHDYPQRIDLELVDGPFSMLVGHWVFQPLAEDACKVLFTLEYAFSNRALEMVVGPVFNRIAASFIDSFTKRAQAKYGEAAALEHHHHHH”, the “soluble on expression in E. coli” value was “soluble”.

On to “MSLKIGKIVSVNFNQFRVKISSEIRGNSVNLAGTVYYFGNIGSYLKTTNSVGEQLICEVMSIFDSDTKLDSAAYDFDSNRELLLKPIGTITRDDRFNLGVGIFPGIYSEVNVVTFEDMELILQTGKDKELSKAIHQSFFLGESKNLINYPIDISINSFFNIHSAVLGNSGSGKSNTIAHIIQEIHKKKNNSAIGSRILIFDVNGEYKNAFTGHEISPYIKVRLLKPNIEATEDGVEPFYLPHFLMNIDEWSSFLMATDATQRPFWDKVLQESYKFYMIATHEGDDRQKLINYLRFKICNLIHILQAQGDSDTAIITTAQGILYGILTLIEMDDDLQRACQQEGVLQDLHDLNASCTIDWGRNDGKLMRAVELVENRINKDTLREVMDYRASGEEYFNYEFLKQAANLTLLEEDARGNGRVREYTSTMMTRLDFFLDNPDCAFMRKSPVGATNIDQYLDWLWQSDKTVPEKTNMVIIDTSELSKDALETLTSVTSRLHFTSRKKLKGSARREKPIHLVLDEAHRYIKKDSKYLLRENIFEQIAREGRKYALYLLVSSQRPSELSETVLSQCSNFIIHRIQNEIDMKYVYAILPYFSDDFANKIKQSVPGEALIFGNCVSMPLHVRVKQAYPEPNSENCKVHEEWFKEGHHHHHH”, for which the “soluble on expression in E. coli” value is on record as “soluble”.

As to “SMKLKSNQTRTYDGDGYKKRAACLCFRNDTEQEVLLVSSSRHPDKWIVPGGGMEPEEEPNVAAAREVCEEAGVKGTLGRLVGIFENRDRKHRTYVYVLIVTEVLEDWEDSVNIGRKREWFKIDDAIQVLQCHKPVQASYFTALQEGCLNSNGTPLVATIGGGDLSPTYSINQSSVSDMR”, the “soluble on expression in E. coli” value was “soluble”.

With “MEFKLLQTFIEVVRQGSFSKAAENLFTTQSTVSKAIKQLEEELGITLIERFKKRNVPTTAGEIVYQRGTKLLADRDDLLKELDEIRGLKQGRLRLGISPVGSSTLFAPLFVLYRQRYPGIEVELVEHGSDKLAECLRAGEIDFAGTLLPISEEFDCQLVRSEPLVALLASGHPLATKHCISLPELKEIPFILFGSGFALHRIILDACRHAGFEPKVVAQSSQIDFMLELVAAGLGVTFLPRMIATQRHTTQIRSLLLNGSEFQWNMAMTWRRNSYLSEAAQAWLALVREVHVDN”, the “soluble on expression in E. coli” value is “not soluble”.

As for “MGSDKIHHHHHHMIEVSRFWRDPALPFVEARQVGDGRKVCYAAHSHESFSIGVITGGRSTYINSDQCVEVGAGTTVLMNPGVVHTCNPVAGEPWSYLMLFVDQPWLQAVGFTLPTQTWSRSPVLYRRLLQAFADLFDARLPDREARLAALFHELPGMLGGNASEGGEGNPRLDAAAAFIRAHRSDPLSLEDICGACGLSRSYLIRAFRQRFGLTPHGYLLDQRVQLARAQLRQGRSIAEVAQEAGFADQAHLQRAFKQHLAATPGHYRNAVASLGAPAGAVQALKDQVNRAGDQ”, the “soluble on expression in E. coli” value was “not soluble”.

Take “MALAPAAGCLFDDDNSFTYDVTWYCGMDECTRTEEVQRYDRARQDYSTLTITSSVDDTLFTDGIIAVSNEVPREDCRLVHGLNFLGQDIEPARFCYTPDGFELRVTIPGDGDENSTTWLLRTN”: the “soluble on expression in E. coli” value is given as “not soluble”.

As for “MRIFSRLFKARDKPKNSLFGNAYSFFFGGTSSGKAVNERTAMQTTAVYACVRILAEAIAGLPLHVYRYKEDGGKEKALTHPLYYLLHDEPNPEMTSFVFRETLMSHLLLWGNAYAQIVRDGSGRVLALYPLLPNKMTVDRAPNGELYYTYRRDSDESRVNPKAGLIYLRSDEVLHIPGLGFDGLIGYSPIAMAKNAIGMAIACEEYGASFFANGANPGGVLEHPGVLKDPAKVRESWNAVYQGSANAHRIAVLEEGMKFQPIGIPPEQAQFLETRKFQINEIARIFRVPPHMVGDLEKSSFSNIEQQSLEFVKYTLDPWVVRWEQALQKALLLPSEKRAYFVKFNVDGLLRGDYASRMNGYAVARQNGWMSANDIRELEDMNRIPAELGGDLYLVNGNMTRLADAGTFAGKNNAETEGSKVEQITKTKTGSPLLELDTKR”, the “soluble on expression in E. coli” value is “not soluble”.

As for “MKQPFTQAIENAELAIRNADERNDIFSELLEGLGVGPVAGEVLLGGLNASPKLMQHAEQELIEEVQRRRQQQHQLQGVQGKRRKRPTMMRGMVILEHHHHHH”, the “soluble on expression in E. coli” value is “not soluble”.

As for “MNYNIRGENIEVTPALKDHVERKIGKLERYFDHSVDADVNVNLKFYNDKESKVEVTIPMTDLALRSEVHNEDMYNAIDLATNKLERQIRKHKTKVNRKFREQGSPKYLLANGLGSDTDIAVQDDIEEEESLDIVRQKRFNLKPMDSEEAILQMNMLGHNFFVFTNAETNLTNVVYRRNDGKYGLIEPTELEHHHHHH”, the “soluble on expression in E. coli” value is “soluble”.

With “MTEKLKNSKEVIAYIAECFPKCFTLEGEAKPLKIGIFQDLAERLNEDEKVSKTQLRAALRQYTSSWRYLHGVKPGAVRVDLDGNPCGELEEEHVEHAKATLAESKAKVQARRKEQAQKAREEGKAKAKPAANKKPQQPRRTNKPKVQKPTK”, the “soluble on expression in E. coli” value is reported as “not soluble”.

For “MTHSHRRHDISDRIWSLLEGHLPGREGAWGGVATDNRQFINAVFWIIRTGAPWRDLPPDYGGWSNTHRRFIRWRDKGIWEKLLEILIDDPDYEWLIMDASHCKVHPHASGARGGNQDMNRTKGGSTPRYIWPWMRMVCRSESLLHKVPLLIARRLAA”, the “soluble on expression in E. coli” value is reported as “not soluble”.

Take “MGSDKIHHHHHHMNTADNVVEMRSISKGFNGVSVLKDVSFDVRKGEVHALAGGNGAGKSTLMKILQGVYQADAGEILIGGKPVAINSIQDAKSAGIGMVFQEFSLVPSLTVAQNIFLAAEPLGAGGLIDDRASERRAKEIFAEMEVKVDPRAEVSRLGTAYWQLTEIAKALSQNAQVLIMDEPTASLARHESEALFELIDRLKQRGISIIYISHRMDEVYRLADRITILRDGRRLLTEPLTGVTPEQIVEGIVGKKIEGQLAYRERDQVAHDSAPLLEVRGLNAGPRVRDISFSLRPGEILGLAGLMGSGRTELARALFGIDRRDSGEIFIRGERINLTSPQQAITAGVALIPEDRRAQGLVLEHSVQDNLLLPLLGQIQRGPFLDGARGKELSSSLIKRFAVKVAHPHRPVRLLSGGNQQKVVIAKWLGTDPDILILDEPTAGVDIGTKSEILDMIRELASAGKAVIVISSEYPELLAVSDRVLVLKDGSIIRDIPRSEIADEEYLQLAVQGV”: the “soluble on expression in E. coli” value is on record as “not soluble”.

Take “MAYWLFKTEPDTFSIDTLRTQKVSCWEGVRNYQARNMMRDQVKVGDFVLIYHSSCKNVGVAGIAKVVREAYPDHFQFDPESDYYDPKSDPDNPRWIMVDIEFVRKTARVIPLSVMKAMPELENMPLVKRGNRLSIMPVTEDEWEAILGKEKLPSQRLEHHHHHH”: the “soluble on expression in E. coli” value is “soluble”.
